Test results taken from doi:10.1101/188995 (bioRxiv, 2018).

Target: the molecule itself
Test: negative-stain transmission electron microscopy

B1: recombinant B. subtilis TasA(28-261), fibre-forming (natural protein, B. subtilis NCIB3610, UniProt P54507 28-261, looked up)
chain: AFNDIKSKDATFASGTLDLSAKENSASVNLSNLKPGDKLTKDFQFENNGSLAIKEVLMALNYGDFKANGGSNTSPEDFLSQFEVTLLTVGKEGGNGYPKNIILDDANLKDLYLMSAKNDAAAAEKIKKQIDPKFLNASGKVNVATIDGKTAPEYDGVPKTPTDFDQVQMEIQFKDDKTKDEKGLMVQNKYQGNSIKLQFSFEATQWNGLTIKKDHTDKDGYVKENEKAHSEDKN
binding result: binds
